Changes are numbered by the printed parent chain. Names and notes keep the numbering of the source.
T1: human HSPB6, wild type, full length (human), O14558
T1 chain: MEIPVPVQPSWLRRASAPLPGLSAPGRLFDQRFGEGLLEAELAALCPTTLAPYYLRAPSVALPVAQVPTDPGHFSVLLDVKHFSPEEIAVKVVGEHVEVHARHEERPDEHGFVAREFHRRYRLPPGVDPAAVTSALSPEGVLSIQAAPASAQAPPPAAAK

B1: HSPB6 Δ11–20 (natural protein, human, UniProt O14558 1-160, looked up)
chain: MEIPVPVQPSGLSAPGRLFDQRFGEGLLEAELAALCPTTLAPYYLRAPSVALPVAQVPTDPGHFSVLLDVKHFSPEEIAVKVVGEHVEVHARHEERPDEHGFVAREFHRRYRLPPGVDPAAVTSALSPEGVLSIQAAPASAQAPPPAAAK
notes: HSPB6, human, full-length protein with residues 11-20 deleted; also called ΔN11–20; source: E. coli NiCo21 (DE3) with pRARE2, purified (subtractive IMAC, anion exchange, SEC); not shown: SUMO, N-terminal, cleaved
B2: HSPB6 Δ41–50 (natural protein, human, UniProt O14558 1-160, looked up)
chain: MEIPVPVQPSWLRRASAPLPGLSAPGRLFDQRFGEGLLEAAPYYLRAPSVALPVAQVPTDPGHFSVLLDVKHFSPEEIAVKVVGEHVEVHARHEERPDEHGFVAREFHRRYRLPPGVDPAAVTSALSPEGVLSIQAAPASAQAPPPAAAK
notes: HSPB6, human, full-length protein with residues 41-50 deleted; source: E. coli NiCo21 (DE3) with pRARE2, purified (subtractive IMAC, anion exchange, SEC); not shown: SUMO, N-terminal, cleaved
B3: HSPB6 Δ21–30 (natural protein, human, UniProt O14558 1-160, looked up)
chain: B1 chain with G11W, S13R, A14R, P15A, G16S, R17A, L18P, F19L, D20P
notes: HSPB6, human, full-length protein with residues 21-30 deleted; source: E. coli NiCo21 (DE3) with pRARE2, purified (subtractive IMAC, anion exchange, SEC); not shown: SUMO, N-terminal, cleaved
B4: HSPB6 Δ36–40 (natural protein, human, UniProt O14558 1-160, looked up)
chain: MEIPVPVQPSWLRRASAPLPGLSAPGRLFDQRFGEELAALCPTTLAPYYLRAPSVALPVAQVPTDPGHFSVLLDVKHFSPEEIAVKVVGEHVEVHARHEERPDEHGFVAREFHRRYRLPPGVDPAAVTSALSPEGVLSIQAAPASAQAPPPAAAK
notes: HSPB6, human, full-length protein with residues 36-40 deleted; source: E. coli NiCo21 (DE3) with pRARE2, purified (subtractive IMAC, anion exchange, SEC); not shown: SUMO, N-terminal, cleaved
B5: HSPB6 ΔN11 (domain or fragment, human, UniProt O14558 12-160, looked up)
chain: LRRASAPLPGLSAPGRLFDQRFGEGLLEAELAALCPTTLAPYYLRAPSVALPVAQVPTDPGHFSVLLDVKHFSPEEIAVKVVGEHVEVHARHEERPDEHGFVAREFHRRYRLPPGVDPAAVTSALSPEGVLSIQAAPASAQAPPPAAAK
notes: HSPB6, human, without its first 11 residues (ΔN10 begins with the sole tryptophan; ΔN11 removes it too); Prone to aggregate; could not be concentrated above about 4-5 mg/ml; also called ΔN11-construct; source: E. coli NiCo21 (DE3) with pRARE2, purified (subtractive IMAC, anion exchange, SEC); not shown: SUMO, N-terminal, cleaved
B6: human HSPB6, wild type, full length, O14558 1-160 (natural protein)
chain: T1 chain
B7: HSPB6 Q31L (natural protein, human, UniProt O14558 1-160, looked up)
chain: T1 chain with Q31L
notes: HSPB6, human, full-length protein with the point mutation Q31L; source: E. coli NiCo21 (DE3) with pRARE2, purified (subtractive IMAC, anion exchange, SEC); not shown: SUMO, N-terminal, cleaved
B8: HSPB6 Q31A (natural protein, human, UniProt O14558 1-160, looked up)
chain: T1 chain with Q31A
notes: HSPB6, human, full-length protein with the point mutation Q31A; Mixture of dimers and what appear to be tetramers; source: E. coli NiCo21 (DE3) with pRARE2, purified (subtractive IMAC, anion exchange, SEC); not shown: SUMO, N-terminal, cleaved
B9: HSPB6 F33Y (natural protein, human, UniProt O14558 1-160, looked up)
chain: T1 chain with F33Y
notes: HSPB6, human, full-length protein with the point mutation F33Y; source: E. coli NiCo21 (DE3) with pRARE2, purified (subtractive IMAC, anion exchange, SEC); not shown: SUMO, N-terminal, cleaved
B10: HSPB6 F33A (natural protein, human, UniProt O14558 1-160, looked up)
chain: T1 chain with F33A
notes: HSPB6, human, full-length protein with the point mutation F33A; source: E. coli NiCo21 (DE3) with pRARE2, purified (subtractive IMAC, anion exchange, SEC); not shown: SUMO, N-terminal, cleaved
B11: HSPB6 Δ51–60 (natural protein, human, UniProt O14558 1-160, looked up)
chain: B2 chain with A41E, P42L, Y43A, Y44A, R46C, A47P, P48T, S49T, V50L
notes: HSPB6, human, full-length protein with residues 51-60 deleted; source: E. coli NiCo21 (DE3) with pRARE2, purified (subtractive IMAC, anion exchange, SEC); not shown: SUMO, N-terminal, cleaved
B12: HSPB6 Δ61–70 (natural protein, human, UniProt O14558 1-160, looked up)
chain: MEIPVPVQPSWLRRASAPLPGLSAPGRLFDQRFGEGLLEAELAALCPTTLAPYYLRAPSVPGHFSVLLDVKHFSPEEIAVKVVGEHVEVHARHEERPDEHGFVAREFHRRYRLPPGVDPAAVTSALSPEGVLSIQAAPASAQAPPPAAAK
notes: HSPB6, human, full-length protein with residues 61-70 deleted; By SAXS closer to a tetramer than to a dimer; source: E. coli NiCo21 (DE3) with pRARE2, purified (subtractive IMAC, anion exchange, SEC); not shown: SUMO, N-terminal, cleaved

Tests used:
HSPB6 Δ31–40 (human) = HSPB6 Δ31–40 (human) (UniProt O14558); assay: SEC-coupled SAXS; inline HPLC, Shodex KW404-4F, 20°C, 20 mM HEPES, 150 mM NaCl, pH 7.4, 2.5 mM DTT; 75 µl of 5 mg/ml HSPB6 or equivalent molarity loaded (ΔN11: 111 µl of 3.37 mg/ml); mass at the peak maximum from I0 and Porod volume; number of subunits of the oligomer
HSPB6 Δ31–35 (human) [1] = biological target: HSPB6 Δ31–35 (human) (UniProt O14558); assay: SEC; data not shown; three loaded concentrations, no larger oligomeric species seen; size of the oligomer (dimer)
HSPB6 Δ31–35 (human) [2] = biological target: HSPB6 Δ31–35 (human) (UniProt O14558); assay: SEC-coupled SAXS; inline HPLC, Shodex KW404-4F, 20°C, 20 mM HEPES, 150 mM NaCl, pH 7.4, 2.5 mM DTT; 75 µl of 5 mg/ml HSPB6 or equivalent molarity loaded (ΔN11: 111 µl of 3.37 mg/ml); mass at the peak maximum from I0 and Porod volume; number of subunits of the oligomer
[3] = biological target: human recombinant insulin (human, UniProt P01308 25-54; P01308 90-110); assay: cell-based or functional assay
human recombinant insulin, sequence (P01308 25-54, chain 1 of 2): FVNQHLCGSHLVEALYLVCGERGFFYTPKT
human recombinant insulin, sequence (P01308 90-110, chain 2 of 2): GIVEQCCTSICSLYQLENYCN

[4] = biological target: the molecule itself; assay: SEC-coupled SAXS; inline HPLC, Shodex KW404-4F, 20°C, 20 mM HEPES, 150 mM NaCl, pH 7.4, 2.5 mM DTT; 75 µl of 5 mg/ml HSPB6 or equivalent molarity loaded (ΔN11: 111 µl of 3.37 mg/ml); mass at the peak maximum from I0 and Porod volume; number of subunits of the oligomer
[5] = biological target: the molecule itself; assay: SEC; 100 µl at 2.5, 5 and 10 mg/ml on Superdex 200 10/300 GL, 4°C, 25 mM HEPES pH 7.5, 150 mM NaCl, 2.5 mM DTT; apparent MW from column calibration; the shift of the peak with loaded concentration is read as self-association of the dimers with each other (dimer to higher species)
[6] = biological target: the molecule itself; assay: SEC; data not shown; three loaded concentrations, no larger oligomeric species seen; size of the oligomer (dimer)
[7] = biological target: T1, human HSPB6, wild type, full length …; assay: as above; details: remark: other sources report otherwise
[8] = biological target: T1, human HSPB6, wild type, full length …; assay: SEC-coupled SAXS; inline HPLC, Shodex KW404-4F, 20°C, 20 mM HEPES, 150 mM NaCl, pH 7.4, 2.5 mM DTT; 75 µl of 5 mg/ml HSPB6 or equivalent molarity loaded (ΔN11: 111 µl of 3.37 mg/ml); mass at the peak maximum from I0 and Porod volume; number of subunits of the oligomer; details: remark: other sources report otherwise
[9] = biological target: T1, human HSPB6, wild type, full length …; assay: SEC; 100 µl at 2.5, 5 and 10 mg/ml on Superdex 200 10/300 GL, 4°C, 25 mM HEPES pH 7.5, 150 mM NaCl, 2.5 mM DTT; apparent MW from column calibration; the shift of the peak with loaded concentration is read as self-association of the dimers with each other (dimer to higher species); details: remark: other sources report otherwise
[10] = biological target: the molecule itself; assay: as above; remark: listed apart in the source

Row | Molecule | stoichiometry N [4] [subunits] | concentration dependence of apparent MW [5] | other results
1 | HSPB6 Δ31–40 (from UniProt O14558 1-160) (natural protein) |  |  | stoichiometry N (HSPB6 Δ31–40 (human)): 2 subunits
2 | HSPB6 Δ31–35 (from UniProt O14558 1-160) (natural protein) |  |  | stoichiometry N (HSPB6 Δ31–35 (human) [1]): 2; stoichiometry N (HSPB6 Δ31–35 (human) [2]): 2.2 subunits
3 | B1 | 1.8 | 0.81 kDa/(mg/ml) | percentage protection against DTT-induced aggregation of insulin (A340 after 90 min, 37°C), insulin:sHSP 1:0.2 to 1:0.05 [3]: ~50 % decrease
4 | B2 | 2.3 | 1.92 kDa/(mg/ml) | percentage protection against DTT-induced aggregation of insulin (A340 after 90 min, 37°C), insulin:sHSP 1:0.2 to 1:0.05 [3]: ~50 % decrease
5 | B3 | 2.2 | 1.29 kDa/(mg/ml) | percentage protection against DTT-induced aggregation of insulin (A340 after 90 min, 37°C), insulin:sHSP 1:0.2 to 1:0.05 [3]: ~50 % decrease
6 | B4 |  | 1.8 kDa/(mg/ml) | stoichiometry N [6]: 2
7 | B5 | 2.5 |  | 
8 | B6 |  |  | stoichiometry N [7]: 2; stoichiometry N [8]: 2.2 subunits; concentration dependence of apparent MW [9]: 1.51 kDa/(mg/ml)
9 | B7 | 4.3 | 1.87 kDa/(mg/ml) | 
10 | B8 | 4.2 | 1.1 kDa/(mg/ml) | stoichiometry N [10]: ~4
11 | B9 | 1.9 |  | 
12 | B10 | 2.3 |  | 
13 | B11 | 1.9 | 0.31 kDa/(mg/ml) | percentage protection against DTT-induced aggregation of insulin (A340 after 90 min, 37°C), insulin:sHSP 1:0.2 to 1:0.05 [3]: ~50 % decrease
14 | B12 | 3.5 | 3.4 kDa/(mg/ml) | 

Reference: article PMC4144951, “Dissecting the Functional Role of the N-Terminal Domain of the Human Small Heat Shock Protein HSPB6” (PLoS ONE, 2014)
